# Measured values taken from US20190127447A1 (Ablynx, published 2019).
# B1: SEQ ID NO: 71 (VHH)
# chain: DVQLVESGGGLVQAGGSLSISCAASGGSLSNYVLGWFRQAPGKEREFVAAINWRGDITIGPPNVEGRFTISRDNAKNTGYLQMNSLAPDDTAVYYCGAGTPLNPGAYIYDWSYDYWGRGTQVTVSSGGGGSGGGGSGGGGSEVQLVESGGGLVQAGGSLSISCAASGGSLSNYVLGWFRQAPGKEREFVAAINWRGDITIGPPNVEGRFTISRDNAKNTGYLQMNSLAPDDTAVYYCGAGTPLNPGAYIYDWSYDYWGRGTQVTVSSGGGGSGGGGSGGGGSEVQLVESGGGLVQAGGSLSISCAASGGSLSNYVLGWFRQAPGKEREFVAAINWRGDITIGPPNVEGRFTISRDNAKNTGYLQMNSLAPDDTAVYYCGAGTPLNPGAYIYDWSYDYWGRGTQVTVSS
# Target: RSV F protein of the hRSV Memphis 37 strain (human respiratory syncytial virus …)
# Experiment: cell-based or functional assay
binder,measurement,value
B1,sensitivity in in vitro neutralization assays relative to RSV-B 18537,6 fold
